Measured values: PMC8998336 (2022)

What was measured:
[1] = biological target: T1, human cationic trypsin (TRY1) p.S200A (human, UniProt P07477 24-247, p.S200A); experiment: SPR
[2] = biological target: human cationic trypsin (TRY1) WT (human, UniProt P07477 24-247); experiment: trypsin activity assay
[3] = biological target: T1, human cationic trypsin (TRY1) p.S200A; experiment: SPR; remark: listed apart in the source

| Kd [1] | Ki [2] | koff [3] | Binder |
| --- | --- | --- | --- |
| 0.863 nM | 0.045 nM | 0.0002 s⁻¹ | serine protease inhibitor Kazal-type 1 (SPINK1) p.N34S (natural protein) DSLGREAKCYSELNGCTKIYDPVCGTDGNTYPNECVLCFENRKRQTSILIQKSGPC |
| 0.8 nM | 0.028 nM | 0.0002 s⁻¹ | serine protease inhibitor Kazal-type 1 (SPINK1) WT (natural protein) DSLGREAKCYNELNGCTKIYDPVCGTDGNTYPNECVLCFENRKRQTSILIQKSGPC |
